{
  "source": "patent US20050100897A1",
  "about": "“NFAT transcription factors in tumor progression” (priority 2002, published 2005)",
  "assay_type_in_all_cases": "cell-based, human",
  "key": {"[1]": {"test_system": "Clone A colon cancer cell line", "assay": "Matrigel chemoinvasion assay, Clone A cells", "settings": "transient transfection", "protocol": "Invasion assays were performed using standard methods (see Shaw et al., Cell 91:949-960, 1997) using Transwell chambers coated with Matrigel. Briefly, cells were co-transfected with the indicated NFAT constructs, 1 μg EGFP-N1 (Clontech) and 1 μg pCS2-(n)β-Gal, a •gal expression vector (Dave Turner, University of Michigan) using the Lipofectamine procedure (Life Technologies), and after twenty-four hours, the cells were resuspended in serum-free medium containing 0.1% bovine serum albumin (BSA) and added to each well. […] Cells that stained positive for β-galactosidase expression were counted, and the mean of triplicate assays for each experimental condition was used as % relative invasion."}, "[2]": {"test_system": "parental MDA-MB-435 β4-negative cells", "assay": "Matrigel invasion assay, parental MDA-MB-435 cells", "settings": "transient transfection, parental MDA-MB-435 (no α6β4)", "description": "(§1) FIGS. 5A-5B are graphs and immunoblots showing the effects of NFAT1 and NFAT5 over expression on transfected cells. Parental MDA-MB-435 β4-negative cells were transiently transfected with wild-type NFAT-1 (FIG. 5A) tagged with the HA epitope (NFAT-1) or with wild-type NFAT-5 (FIG. 5B) tagged with the myc epitope (NFAT-5) or control vector alone (vector). Following the transfection protocol, cells were assayed for their ability to migrate or to invade Matrigel. Relative migration/invasion were determined by comparing the amount of migration/invasion obtained from NFAT transfectants to that obtained from cells transfected with vector alone, which was assigned a value of 100%. An aliquot of transfected cells was lysed and nuclear extracts were resolved by SDS PAGE and immunoblotted with anti-HA or anti-myc. The data shown are mean values (±SEM) of 3 experiments performed in triplicate.\n(§2) Invasion assays were performed using standard methods (see Shaw et al., Cell 91:949-960, 1997) using Transwell chambers coated with Matrigel. […] Cells that stained positive for β-galactosidase expression were counted, and the mean of triplicate assays for each experimental condition was used as % relative invasion. […]"}, "[3]": {"test_system": "parental MDA-MB-435 cells", "assay": "Chemotactic migration assay (Transwell without Matrigel), parental MDA-MB-435", "settings": "transient transfection; conditioned media present, no Matrigel", "description": "as §1\nIncreased cell migration was intimately linked with carcinoma invasion. […]\nas §2"}},
  "data": [
    {"molecule": "DBD5: NFAT-5 dominant negative mutant comprising amino acids 175-471 (SEQ ID NO:14) of NFAT5a (protein, listed as Homo sapiens) GNGTLENQKGTGVKKSPMLCGQYPVKSEGKELKIVVQPETQHRARYLTEGSRGSVKDRTQQGFPTVKLEGHNEPVVLQVFVGNDSGRVKPHGFYQACRVTGRNTTPCKEVDIEGTTVIEVGLDPSNNMTLAVDCVGILKLRNADVEARIGIAGSKKKSTRARLVFRVNIMRKDGSTLTLQTPSSPILCTQPAGVPEILKKSLHSCSVKGEEEVFLIGKNFLKGTKVIFQENVSDENSWKSEAEIDMELFHQNHLIVKVPPYHDQHITLPVSVGIYVVTNAGRSHDVQPFTYTPDPAA", "values": [
      {"measurement": "carcinoma invasion (relative invasion vs vector alone)", "setting": "[1]", "result": "also inhibited invasion"}
    ]},
    {"molecule": "wild-type NFAT-1: wild-type NFAT-1 tagged with the HA epitope, transiently overexpressed (protein) MNAPERQPQPDGGDAPGHEPGGSPQDELDFSILFDYEYLNPNEEEPNAHKVASPPSGPAYPDDVMDYGLKPYSPLASLSGEPPGRFGEPDRVGPQKFLSAAKPAGASGLSPRIEITPSHELIQAVGPLRMRDAGLLVEQPPLAGVAASPRFTLPVPGFEGYREPLCLSPASSGSSASFISDTFSPYTSPCVSPNNGGPDDLCPQFQNIPAHYSPRTSPIMSPRTSLAEDSCLGRHSPVPRPASRSSSPGAKRRHSCAEALVALPPGASPQRSRSPSPQPSSHVAPQDHGSPAGYPPVAGSAVIMDALNSLATDSPCGIPPKMWKTSPDPSPVSAAPSKAGLPRHIYPAVEFLGPCEQGERRNSAPESILLVPPTWPKPLVPAIPICSIPVTASLPPLEWPLSSQSGSYELRIEVQPKPHHRAHYETEGSRGAVKAPTGGHPVVQLHGYMENKPLGLQIFIGTADERILKPHAFYQVHRITGKTVTTTSYEKIVGNTKVLEIPLEPKNNMRATIDCAGILKLRNADIELRKGETDIGRKNTRVRLVFRVHIPESSGRIVSLQTASNPIECSQRSAHELPMVERQDTDSCLVYGGQQMILTGQNFTSESKVVFTEKTTDGQQIWEMEATVDKDKSQPNMLFVEIPEYRNKHIRTPVKVNFYVINGKRKRSQPQHFTYHPVPAIKTEPTDEYDPTLICSPTHGGLGSQPYYPQHPMVAESPSCLVATMAPCQQFRTGLSSPDARYQQQNPAAVLYQRSKSLSPSLLGYQQPALMAAPLSLADAHRSVLVHAGSQGQSSALLHPSPTNQQASPVIHYSPTNQQLRCGSHQEFQHIMYCENFAPGTTRPGPPPVSQGQRLSPGSYPTVIQQQNATSQRAAKNGPPVSDQKEVLPAGVTIKQEQNLDQTYLDDELIDTHLSWIQNIL", "values": [
      {"measurement": "carcinoma invasion", "setting": "[2]", "result": "also induced carcinoma invasion"},
      {"measurement": "chemotactic migration", "setting": "[3]", "result": "sufficient to increase chemotactic migration"}
    ]},
    {"molecule": "wild-type NFAT-5: wild-type NFAT-5 tagged with the myc epitope, transiently overexpressed (protein) MSQTSGGEAGSPPPAVVAADASSAPSSSSMGGACSSFTTSSSPTIYSTSVTDSKAMQVESCSSAVGVSNRGVSEKQLTSNTVQQHPSTPKRHTVLYISPPPEDLLDNSRMSCQDEGCGLESEQSCSMWMEDSPSNFSNMSTSSYNDNTEVPRKSRKRNPKQRPGVKRRDCEESNMDIFDADSAKAPHYVLSQLTTDNKGNSKAGNGTLENQKGTGVKKSPMLCGQYPVKSEGKELKIVVQPETQHRARYLTEGSRGSVKDRTQQGFPTVKLEGHNEPVVLQVFVGNDSGRVKPHGFYQACRVTGRNTTPCKEVDIEGTTVIEVGLDPSNNMTLAVDCVGILKLRNADVEARIGIAGSKKKSTRARLVFRVNIMRKDGSTLTLQTPSSPILCTQPAGVPEILKKSLHSCSVKGEEEVFLIGKNFLKGTKVIFQENVSDENSWKSEAEIDMELFHQNHLIVKVPPYHDQHITLPVSVGIYVVTNAGRSHDVQPFTYTPDPAAAGALNVNVKKEISSPARPCSFEEAMKAMKTTGCNLDKVNIIPNALMTPLIPSSMIKSEDVTPMEVTAEKRSSTIFKTTKSVGSTQQTLENISNIAGNGSFSSPSSSHLPSENEKQQQIQPKAYNPETLTTIQTQDISQPGTFPAVSASSQLPNSDALLQQATQFQTRETQSREILQSDGTVVNLSQLTEASQQQQQSPLQEQAQTLQQQISSNIFPSPNSVSQLQNTIQQLQAGSFTGSTASGSSGSVDLVQQVLEAQQQLSSVLFSAPDGNENVQEQLSADIFQQVSQIQSGVSPGMFSSTEPTVHTRPDNLLPGRAESVHPQSENTLSNQQQQQQQQQQVMESSAAMVMEMQQSICQAAAQIQSELFPSTASANGNLQQSPVYQQTSHMMSALSTNEDMQMQCELFSSPPAVSGNETSTTTTQQVATPGTTMFQTSSSGDGEETGTQAKQIQNSVFQTMVQMQHSGDNQPQVNLFSSTKSMMSVQNSGTQQQGNGLFQQGNEMMSLQSGNFLQQSSHSQAQLFHPQNPIADAQNLSQETQGSLFHSPNPIVHSQTSTTSSEQMQPPMFHSQSTIAVLQGSSVPQDQQSTNIFLSQSPMNNLQTNTVAQEAFFAAPNSISPLQSTSNSEQQAAFQQQAPISHIQTPMLSQEQAQPPQQGLFQPQVALGSLPPNPMPQSQQGTMFQSQHSIVAMQSNSPSQEQQQQQQQQQQQQQQQQQSILFSNQNTMATMASPKQPPPNMIFNPNQNPMANQEQQNQSIFHQQSNMAPMNQEQQPMQFQSQSTVSSLQNPGPTQSESSQTPLFHSSPQIQLVQGSPSSQEQQVTLFLSPASMSALQTSINQQDMQQSPLYSPQNNMPGIQGATSSPQPQATLFHNTAGGTMNQLQNSPGSSQQTSGMFLFGIQNNCSQLLTSGPATLPDQLMAISQPGQPQNEGQPPVTTLLSQQMPENSPLASSINTNQNIEKIDLLVSLQNQGNNLTGSF", "values": [
      {"measurement": "carcinoma invasion", "setting": "[2]", "result": "this was not observed"},
      {"measurement": "chemotactic migration", "setting": "[3]", "result": "sufficient to increase chemotactic migration"}
    ]}
  ]
}
